Positions count from the first letter of the chain named.

Sequences and labels used below:
T1: TIM3(ECD)-Fc抗原 (human, UniProt Q8TDQ0 22-202)
T1 construct: extracellular domain;domain: Fc; Made in HEK293F cells, purified on Protein A; also called 人TIM3(ECD); pFUSE-IgG1-TIM3(ECD); not shown: TEV cleavage site at the C-terminus of TIM3(ECD); IgG1 Fc of the pFUSE-IgG1 vector
T1 sequence (looked up): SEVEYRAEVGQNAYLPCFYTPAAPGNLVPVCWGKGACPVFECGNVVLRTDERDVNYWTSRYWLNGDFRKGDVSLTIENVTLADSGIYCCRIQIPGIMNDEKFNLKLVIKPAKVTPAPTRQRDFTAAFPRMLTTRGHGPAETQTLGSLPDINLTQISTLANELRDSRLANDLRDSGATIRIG

B1: Nb26 (VHH)
VHH: QVQLQESGGGLVQPGGSLRLSCTASGSTFSTALMGWFRQAPGKEREGVAVISAGGGSTWYADSVKGRFTISRDNTKNTVFLQMISLKPEDTAMYYCASSNSLWTRESRYFGYWGQGTQVTVSS
notes: Camel VHH from the pMECS vector, made in E. coli; detected through HA tag (ELISA) or His tag (flow cytometry); also called 抗体株26
B2: Nb21 (VHH)
VHH: QVQLQESGGGSVQAGGSLRLYCAASKITYVSSCMGWFRQAPGKEREGVASIDRDGSTTYADSVKGRFTISRDNAKDSLYLQMNSLKPEDTAMYYCAADWGRWCSLEKAVDFVYWGQGTQVTVSS
notes: Camel VHH from the pMECS vector, made in E. coli; detected through HA tag (ELISA) or His tag (flow cytometry); also called 抗体株21
B3: Nb27 (VHH)
VHH: QVQLQESGGGLVQPGGSLRLSCAAAGFTFSSSEMTWVRQAPGKGLEWVARISSTSAFTQYAGSVKGRFTISRDNAKNTLYLQLNSLKTEDTAMYYCAKDVYCGGQYCPPVGPGTQVTVSS
B4: Nb16 (VHH)
VHH: QVQLQESGGGSVQAGGSLRLSCTASRSTYCMGWFRQAPGKEREGVAIISSDGRTNYADPVKGRFTISKDNAKNTMFLQMNSLKPEDTAMYYCATRPGNSCGTGIDMPYWGKGTQVTVSS
notes: Camel VHH from the pMECS vector, made in E. coli; detected through HA tag (ELISA) or His tag (flow cytometry); also called 抗体株16
B5: Nb25 (VHH)
VHH: QVQLQESGGGSVQAGGSLRLSCAASVDIYRTYCMGWFRQAPGKQREGVAAISTDGRIRYANSVEGRFTISKDNANNTLYLQMNSLKPEDTAMYFCAADSARCGLWLGGGYPNYWGRGTQVTVSS
notes: Camel VHH from the pMECS vector, made in E. coli; detected through HA tag (ELISA) or His tag (flow cytometry); also called 抗体株25
B6: Nb23 (VHH)
VHH: QVQLQESGGGSVQTGGSLRLSCTASGFTFSSADMSWVRQAPGKGLEWVSSINSGGGWTDYADSVQGRFTISRDNGKNTLYLQMNSLKTEDTAVYYCTIGNTYCSRGACLRGQGTQVTVSS
B7: Nb24 (VHH)
VHH: B6 VHH with S11L, T14P, T23A, S31V, W57R, D59Y, V64M, Q65K, N100H, R105G
B8: Nb22 (VHH)
VHH: QVQLQESGGGSVRAGGSLRLSCAASGYTYSLYCMGWFRQAPGKEREGVAAISAGGGTTYYSDAVKGRFTISRDNAKKTLYLQMNSLNPEDTAMYYCARSGGYCGLLEYPFTSWGPGTQVTVSS
notes: Camel VHH from the pMECS vector, made in E. coli; detected through HA tag (ELISA) or His tag (flow cytometry); also called 抗体株22
B9: Nb18 (VHH)
VHH: QVQLQESGGGLVQPGGSLRLSCAASGFTFSVADMSWVRQGPGKGFEWVSSINSDGVSTYYADSVKGRFTISRDNAENTLYLRANSLKTEDTAVYYCAIGHTPCTAGSCRRGQGTQVTVSS
B10: Nb20 (VHH)
VHH: QVQLQESGGGLVQPGGSLRLSCAASGFTFSVADMTWVRQGLGKGFEWVASVNSDGGSTYYADSVKGRFTISRDNAKNTLYLRLNSLKTEDTAVYYCAIGRTPCTGGFCHRGQGTQVTVSS
B11: Nb19 (VHH)
VHH: QVQLQESGGGSVQAGGSLRLSCAASTYTVVRNCFGWFRQAPGKKREGVAVIDRDGSTRYAASVKGRFTISKDNAKNALYLQMSSLEPEDTAVYYCAADWNNDRSCPLWADGFGYWGQGTQVTVSS
notes: Camel VHH from the pMECS vector, made in E. coli; detected through HA tag (ELISA) or His tag (flow cytometry); also called 抗体株19
B12: Nb17 (VHH)
VHH: QVQLQESGGGSVQAGGSLRLSCAASTTLYIASLGWFRQAPGKEREGVAAVDRDGNLDYADSVKGRFTFSRDHAKNTLYLQMNSLKPEDAAMYYCSAALSYVPAGRRLQPDAYNYWGQGTQVTVSS
notes: Camel VHH from the pMECS vector, made in E. coli; detected through HA tag (ELISA) or His tag (flow cytometry); also called 抗体株17
B13: Nb4 (VHH)
VHH: QVQLQESGGGSVQAGGSLRLSCTASGYTYSRACMGWFRQAPGKQREWVSGIRHDGSTSYADSVKGRFTISRDNAKNTLYLQMNSLKPEDTAMYYCGADIDCRQSRPPYWGQGTQVTVSS
notes: Camel VHH from the pMECS vector, made in E. coli; detected through HA tag (ELISA) or His tag (flow cytometry); also called 抗体株4
B14: Nb7 (VHH)
VHH: B13 VHH with T23A, T57I, S58T, Q103G, S104T
notes: Camel VHH from the pMECS vector, made in E. coli; detected through HA tag (ELISA) or His tag (flow cytometry); also called 抗体株7
B15: Nb6 (VHH)
VHH: B13 VHH with A14V, T57I, S58T, Q103G, S104T
notes: Camel VHH from the pMECS vector, made in E. coli; detected through HA tag (ELISA) or His tag (flow cytometry); also called 抗体株6
B16: Nb3 (VHH)
VHH: B13 VHH with A14V, E46D
notes: Camel VHH from the pMECS vector, made in E. coli; detected through HA tag (ELISA) or His tag (flow cytometry); also called 抗体株3
B17: Nb8 (VHH)
VHH: B13 VHH with T57I, S58T, S84N, Q103G, S104T
notes: Camel VHH from the pMECS vector, made in E. coli; detected through HA tag (ELISA) or His tag (flow cytometry); also called 抗体株8
B18: Nb5 (VHH)
VHH: B13 VHH with A14V, F67S
notes: Camel VHH from the pMECS vector, made in E. coli; detected through HA tag (ELISA) or His tag (flow cytometry); also called 抗体株5
B19: Nb2 (VHH)
VHH: B13 VHH with A14V, A74T
notes: Camel VHH from the pMECS vector, made in E. coli; detected through HA tag (ELISA) or His tag (flow cytometry); also called 抗体株2
B20: Nb15 (VHH)
VHH: QVQLQESGGGSVQAGGSLKLSCTASVWIFSNCAMAWYRQAPGKEREFVSAIGSFRDTNYADSVKGRFTISRDNAKNTGYLQMNSLKPEDSAMYYCKIQCGTQVNWGQGTQVTVSS
notes: Camel VHH from the pMECS vector, made in E. coli; detected through HA tag (ELISA) or His tag (flow cytometry); also called 抗体株15
B21: Nb28 (VHH)
VHH: QVQLQESGGGSVQAGGSLRLSCAATKALVISCLAWFRQAPGKEREWVALIGRDGSTSYPDSVKGRFTFSKNTAKNTLELQMNNLKPEDTGAYYCAAATKQDGIPLNPADYDIWGRGTQVTVSS
notes: Camel VHH from the pMECS vector, made in E. coli; detected through HA tag (ELISA) or His tag (flow cytometry); also called 抗体株28

The first assay deals with TIM-3 on HEK 293T TIM-3稳转细胞 (UniProt Q8TDQ0). The experiment in a line: flow cytometry on HEK293T TIM-3 stable cells, 6 ug nanobody per well, anti-His Alexa Fluor 488. Background: A flow cytometer gives signals particle by particle.
B1 had a 结合力 (阳性细胞的比例) of more than 80%.
Still for that read-out and setting: for B2 the value was more than 80%; for B3, more than 80%; for B4, more than 80%.
For the molecule B5, the 结合力 (阳性细胞的比例) is more than 80%.
Still for that read-out and setting: for B6 the value was more than 80%; for B7, more than 80%.
For B8, the 结合力 (阳性细胞的比例) is more than 80%.
B9 returned a 结合力 (阳性细胞的比例) of more than 80%.
B10: the 结合力 (阳性细胞的比例) was more than 80%.

The target is the same in a further assay. The assay can be described thus: flow cytometry on HEK 293T TIM-3 stable cells, 6 ug antibody per 5x10^5 cells, goat-anti-human FITC.
For the molecule “TIM-3阳性抗体(bench marker，BMK; TSR-022) (antibody)”, the 阳性细胞比例 was 98.1%.

The next assay concerns the target T1, TIM3(ECD)-Fc抗原. The experiment in a line: ELISA of crude periplasmic extract on antigen-coated plate, anti-HA detection; clones positive at OD ratio to control >3. In general terms: An ELISA detects its analyte on a solid surface through an enzyme-linked reagent.
For B11, the binding result was “binds”.
With B12, the binding result is listed as “binds”.
Same read-out and setting: then B1, with “binds”.
For the molecule B13, the binding result is “binds”.
In the case of B14, the binding result is reported as “binds”.
As to B15, the binding result is listed as “binds”.
Consider B16, for which the binding result was “binds”.
On to B17, for which the binding result is listed as “binds”.
The same measure, in the same setting: then B18, with “binds”.
As to B19, the binding result is recorded as “binds”.
On the same count and under the same terms, for B2 the value was “binds”; for B20, “binds”; for B4, “binds”.
Regarding B5, the binding result is listed as “binds”.
Turning to B8, the binding result is reported as “binds”.
For B21, the binding result is “binds”.

The values are drawn from patent CN110144011A (SHANGHAI NOVAMAB BIOPHARMACEUTICALS CO LTD, dated 2019).
